Data reported in PMC8634136 (The EMBO Journal, 2021).

Experiments:
[1] = target: T1, MCM3 (human, UniProt P25205-1 1-808); test: cryo-EM structure; core human replisome (100 nM hsCMG with 1.5-fold excess of AND-1, TIMELESS-TIPIN, Pol ε, CLASPIN) on fork DNA with AMP-PNP; glycerol gradient with glutaraldehyde and BS3; consensus map 3.2 Å and multi-body map of Pol ε/CDC45/GINS; PDB 7PFO; conditions: both partners purified
T1 construct: human MCM3, subunit of hsCMG; the construct lacks the 45 additional N-terminal residues of the longer isoform used in PDB 6XTX; Subunit of the CMG helicase in the replisome structure; source: Hi5 insect cells co-infected with baculoviruses for MCM2-7, GINS and CDC45; purified as hsCMG (Flag M2, Strep-Tactin XT, MonoQ)
T1 sequence: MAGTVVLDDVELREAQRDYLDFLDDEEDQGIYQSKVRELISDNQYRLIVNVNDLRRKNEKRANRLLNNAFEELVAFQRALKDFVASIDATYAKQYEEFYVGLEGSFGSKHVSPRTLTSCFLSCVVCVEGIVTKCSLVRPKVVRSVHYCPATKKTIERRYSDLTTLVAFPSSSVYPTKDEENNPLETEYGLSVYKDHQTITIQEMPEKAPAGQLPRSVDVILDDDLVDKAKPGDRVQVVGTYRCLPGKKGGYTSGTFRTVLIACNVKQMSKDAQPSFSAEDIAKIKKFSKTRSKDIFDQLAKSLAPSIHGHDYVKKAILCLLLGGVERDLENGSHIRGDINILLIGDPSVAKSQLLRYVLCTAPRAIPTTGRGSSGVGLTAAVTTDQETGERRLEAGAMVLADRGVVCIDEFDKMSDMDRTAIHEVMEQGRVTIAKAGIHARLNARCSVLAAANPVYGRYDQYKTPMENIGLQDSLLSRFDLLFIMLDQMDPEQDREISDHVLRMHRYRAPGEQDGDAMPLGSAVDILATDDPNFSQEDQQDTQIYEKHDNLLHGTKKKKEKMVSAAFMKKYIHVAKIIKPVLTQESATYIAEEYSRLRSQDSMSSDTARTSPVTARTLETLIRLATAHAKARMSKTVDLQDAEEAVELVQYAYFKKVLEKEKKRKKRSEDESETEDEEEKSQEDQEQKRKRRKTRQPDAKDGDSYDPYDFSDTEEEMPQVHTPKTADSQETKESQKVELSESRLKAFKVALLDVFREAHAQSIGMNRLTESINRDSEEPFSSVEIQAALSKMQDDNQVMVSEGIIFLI

[2] = target: T2, TIMELESS (human, UniProt Q9UNS1 1-1208); test: cryo-EM structure; replisome reconstituted on fork DNA with AMP-PNP, isolated on a glycerol gradient with glutaraldehyde and BS3; 3.2 Å overall; a sample without CLASPIN solved at 3.4 Å; conditions: both partners purified
T2 construct: Stood in the structure as a subunit of m3; residues 7-803 modelled (527-684 not visualised)
T2 sequence: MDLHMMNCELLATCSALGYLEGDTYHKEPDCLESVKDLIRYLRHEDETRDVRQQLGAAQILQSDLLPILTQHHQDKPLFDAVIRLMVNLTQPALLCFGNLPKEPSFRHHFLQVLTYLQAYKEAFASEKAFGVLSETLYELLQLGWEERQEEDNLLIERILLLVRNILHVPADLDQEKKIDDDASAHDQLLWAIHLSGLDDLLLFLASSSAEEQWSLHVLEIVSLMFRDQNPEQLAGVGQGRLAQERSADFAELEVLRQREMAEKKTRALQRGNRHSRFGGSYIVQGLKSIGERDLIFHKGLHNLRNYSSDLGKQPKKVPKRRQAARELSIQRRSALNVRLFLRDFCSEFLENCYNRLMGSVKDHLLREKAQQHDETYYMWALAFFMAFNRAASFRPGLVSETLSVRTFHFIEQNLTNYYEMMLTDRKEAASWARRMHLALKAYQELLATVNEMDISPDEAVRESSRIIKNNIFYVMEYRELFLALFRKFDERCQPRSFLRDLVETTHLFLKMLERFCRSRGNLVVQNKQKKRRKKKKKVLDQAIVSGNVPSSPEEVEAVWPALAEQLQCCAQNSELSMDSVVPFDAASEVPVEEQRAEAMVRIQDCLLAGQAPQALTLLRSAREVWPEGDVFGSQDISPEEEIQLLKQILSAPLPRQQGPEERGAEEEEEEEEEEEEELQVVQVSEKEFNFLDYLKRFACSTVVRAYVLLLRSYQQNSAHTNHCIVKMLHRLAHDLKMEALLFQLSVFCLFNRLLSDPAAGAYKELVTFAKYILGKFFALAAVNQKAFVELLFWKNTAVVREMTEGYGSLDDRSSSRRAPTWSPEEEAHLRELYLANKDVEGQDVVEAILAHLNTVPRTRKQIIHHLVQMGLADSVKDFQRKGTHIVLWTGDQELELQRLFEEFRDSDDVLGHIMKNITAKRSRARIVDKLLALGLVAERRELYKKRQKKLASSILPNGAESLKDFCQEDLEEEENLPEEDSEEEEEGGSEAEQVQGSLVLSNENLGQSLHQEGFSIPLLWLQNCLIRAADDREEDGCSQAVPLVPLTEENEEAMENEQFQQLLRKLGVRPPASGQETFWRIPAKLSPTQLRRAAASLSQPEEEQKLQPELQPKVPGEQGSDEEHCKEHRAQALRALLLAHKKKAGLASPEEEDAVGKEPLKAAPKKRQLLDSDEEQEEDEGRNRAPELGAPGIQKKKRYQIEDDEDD

[3] = target: T3, MCM7 (human, UniProt P33993 1-719); test: as above; conditions: both partners purified
T3 construct: MCM7, human; Stood in the structure as a subunit of m1; source: Hi5 insect cells, purified as a subunit of hsCMG

[4] = target: the molecule itself; test: as above
[5] = target: T4, human CDC45‐MCM‐GINS (CMG) helicase (human, UniProt P49736 1-904; P25205 1-808; P33991 1-863; P33992 1-734; Q14566 1-821; P33993 …); test: co-sedimentation; native glycerol gradient without cross-linker (40 mM HEPES-NaOH pH 7.5, 150 mM NaOAc, 0.5 mM TCEP, 500 µM AMP-PNP, 3 mM Mg(OAc)2), 200,000 g, 4°C, 2 h; 100 nM CMG pre-incubated with fork DNA, 1.5-fold molar excess of the other proteins; fractions on silver-stained SDS-PAGE; conditions: both partners purified
T4 construct: MCM2, human; MCM3, human; the construct lacks the 45 additional N-terminal amino acids of the longer isoform used in PDB 6XTX; MCM4, human; MCM5, human; MCM6, human; MCM7, human; CDC45, human; PSF1 (GINS subunit), human; PSF2 (GINS subunit), human; PSF3 (GINS subunit), human; SLD5 (GINS subunit), human; also called hsCMG; source: Hi5 insect cells co-infected with baculoviruses for MCM2-7, GINS …

[6] = target: T5, CLASPIN (human, UniProt Q9HAW4 1-1339); test: cryo-EM structure; replisome reconstituted on fork DNA with AMP-PNP, isolated on a glycerol gradient with glutaraldehyde and BS3; 3.2 Å overall; a sample without CLASPIN solved at 3.4 Å; conditions: both partners purified
T5 construct: CLASPIN, human; Only residues 284-319, 525-540 and 592-618 are modelled in the structure; source: Hi5 insect cells (baculovirus), purified (Flag M2, Superose 6)
T5 sequence (Q9HAW4 whole entry, the tested form may be a part): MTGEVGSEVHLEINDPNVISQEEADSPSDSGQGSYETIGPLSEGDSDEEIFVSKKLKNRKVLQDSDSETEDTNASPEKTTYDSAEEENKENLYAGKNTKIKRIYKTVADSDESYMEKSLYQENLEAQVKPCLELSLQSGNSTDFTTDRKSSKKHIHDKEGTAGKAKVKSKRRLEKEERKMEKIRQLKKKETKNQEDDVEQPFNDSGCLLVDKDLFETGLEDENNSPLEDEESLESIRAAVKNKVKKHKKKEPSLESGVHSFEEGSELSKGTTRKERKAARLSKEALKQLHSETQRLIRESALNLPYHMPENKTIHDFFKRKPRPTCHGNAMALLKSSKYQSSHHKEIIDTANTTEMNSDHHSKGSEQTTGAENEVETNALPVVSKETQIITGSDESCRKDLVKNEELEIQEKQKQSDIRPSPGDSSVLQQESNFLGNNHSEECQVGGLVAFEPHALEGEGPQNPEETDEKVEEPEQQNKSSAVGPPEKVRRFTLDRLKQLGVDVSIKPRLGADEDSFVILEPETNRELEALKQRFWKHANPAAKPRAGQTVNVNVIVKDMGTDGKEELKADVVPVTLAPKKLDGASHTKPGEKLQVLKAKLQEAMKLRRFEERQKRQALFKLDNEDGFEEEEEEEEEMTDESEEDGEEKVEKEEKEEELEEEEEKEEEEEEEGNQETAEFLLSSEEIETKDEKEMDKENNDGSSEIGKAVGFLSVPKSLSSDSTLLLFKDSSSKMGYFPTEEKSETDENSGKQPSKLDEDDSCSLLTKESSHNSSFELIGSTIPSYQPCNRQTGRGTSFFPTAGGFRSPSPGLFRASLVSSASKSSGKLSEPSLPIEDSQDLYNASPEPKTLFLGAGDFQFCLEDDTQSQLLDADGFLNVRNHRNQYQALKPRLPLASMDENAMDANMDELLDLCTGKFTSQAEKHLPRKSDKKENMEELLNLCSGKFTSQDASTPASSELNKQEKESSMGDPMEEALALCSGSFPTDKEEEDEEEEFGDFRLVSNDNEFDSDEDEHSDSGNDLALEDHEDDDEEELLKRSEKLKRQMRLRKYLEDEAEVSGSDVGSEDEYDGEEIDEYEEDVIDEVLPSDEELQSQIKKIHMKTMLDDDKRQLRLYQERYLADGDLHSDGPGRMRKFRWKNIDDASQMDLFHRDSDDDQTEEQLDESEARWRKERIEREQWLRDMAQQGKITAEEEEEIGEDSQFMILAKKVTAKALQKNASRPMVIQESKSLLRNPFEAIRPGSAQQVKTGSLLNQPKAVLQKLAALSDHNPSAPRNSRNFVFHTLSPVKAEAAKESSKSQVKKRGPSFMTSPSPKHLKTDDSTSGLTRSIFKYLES

T3 sequence (P33993 whole entry): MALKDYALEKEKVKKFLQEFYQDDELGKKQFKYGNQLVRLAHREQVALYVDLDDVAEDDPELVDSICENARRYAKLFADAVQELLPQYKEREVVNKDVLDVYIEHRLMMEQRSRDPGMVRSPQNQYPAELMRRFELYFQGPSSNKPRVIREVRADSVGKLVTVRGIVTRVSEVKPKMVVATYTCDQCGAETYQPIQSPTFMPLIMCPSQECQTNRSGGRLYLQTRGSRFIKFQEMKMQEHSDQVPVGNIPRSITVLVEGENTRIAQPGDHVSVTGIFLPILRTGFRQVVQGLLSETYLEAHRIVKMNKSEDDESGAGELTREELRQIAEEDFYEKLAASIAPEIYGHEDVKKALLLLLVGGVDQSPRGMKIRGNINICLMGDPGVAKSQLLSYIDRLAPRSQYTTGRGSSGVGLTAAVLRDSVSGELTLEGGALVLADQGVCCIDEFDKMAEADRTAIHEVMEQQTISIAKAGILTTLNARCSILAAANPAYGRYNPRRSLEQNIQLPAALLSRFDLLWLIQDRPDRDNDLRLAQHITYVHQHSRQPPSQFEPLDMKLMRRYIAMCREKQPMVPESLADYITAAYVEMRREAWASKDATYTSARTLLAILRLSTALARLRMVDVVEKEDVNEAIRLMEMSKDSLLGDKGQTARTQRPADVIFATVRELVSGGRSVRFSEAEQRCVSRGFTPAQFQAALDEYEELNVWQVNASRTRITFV

B1: POLE2 (natural protein, human)
chain: MAPERLRSRALSAFKLRGLLLRGEAIKYLTEALQSISELELEDKLEKIINAVEKQPLSSNMIERSVVEAAVQECSQSVDETIEHVFNIIGAFDIPRFVYNSERKKFLPLLMTNHPAPNLFGTPRDKAEMFRERYTILHQRTHRHELFTPPVIGSHPDESGSKFQLKTIETLLGSTTKIGDAIVLGMITQLKEGKFFLEDPTGTVQLDLSKAQFHSGLYTEACFVLAEGWFEDQVFHVNAFGFPPTEPSSTTRAYYGNINFFGGPSNTSVKTSAKLKQLEEENKDAMFVFLSDVWLDQVEVLEKLRIMFAGYSPAPPTCFILCGNFSSAPYGKNQVQALKDSLKTLADIICEYPDIHQSSRFVFVPGPEDPGFGSILPRPPLAESITNEFRQRVPFSVFTTNPCRIQYCTQEITVFREDLVNKMCRNCVRFPSSNLAIPNHFVKTILSQGHLTPLPLYVCPVYWAYDYALRVYPVPDLLVIADKYDPFTTTNTECLCINPGSFPRSGFSFKVFYPSNKTVEDSKLQGF
notes: human POLE2, subunit of Pol ε; residues 1-527 modelled; Purified with POLE1, POLE3 (C-terminal TEV CBP tag) and POLE4
- binding result [1]: binds

B2: TIPIN (natural protein, human)
chain: MLEPQENGVIDLPDYEHVEDETFPPFPPPASPERQDGEGTEPDEESGNGAPVRVPPKRTVKRNIPKLDAQRLISERGLPALRHVFDKAKFKGKGHEAEDLKMLIRHMEHWAHRLFPKLQFEDFIDRVEYLGSKKEVQTCLKRIRLDLPILHEDFVSNNDEVAENNEHDVTSTELDPFLTNLSESEMFASELSRSLTEEQQQRIERNKQLALERRQAKLLSNSQTLGNDMLMNTPRAHTVEEVNTDEDQKEESNGLNEDILDNPCNDAIANTLNEEETLLDQSFKNVQQQLDATSRNITEAR
notes: TIPIN, human; Stood in the structure as a subunit of m3; residues 62-147 modelled
- binding result [2]: binds
- binding result [3]: binds

B3: AND‐1 (natural protein, human)
chain: MPATRKPMRYGHTEGHTEVCFDDSGSFIVTCGSDGDVRIWEDLDDDDPKFINVGEKAYSCALKSGKLVTAVSNNTIQVHTFPEGVPDGILTRFTTNANHVVFNGDGTKIAAGSSDFLVKIVDVMDSSQQKTFRGHDAPVLSLSFDPKDIFLASASCDGSVRVWQISDQTCAISWPLLQKCNDVINAKSICRLAWQPKSGKLLAIPVEKSVKLYRRESWSHQFDLSDNFISQTLNIVTWSPCGQYLAAGSINGLIIVWNVETKDCMERVKHEKGYAICGLAWHPTCGRISYTDAEGNLGLLENVCDPSGKTSSSKVSSRVEKDYNDLFDGDDMSNAGDFLNDNAVEIPSFSKGIINDDEDDEDLMMASGRPRQRSHILEDDENSVDISMLKTGSSLLKEEEEDGQEGSIHNLPLVTSQRPFYDGPMPTPRQKPFQSGSTPLHLTHRFMVWNSIGIIRCYNDEQDNAIDVEFHDTSIHHATHLSNTLNYTIADLSHEAILLACESTDELASKLHCLHFSSWDSSKEWIIDLPQNEDIEAICLGQGWAAAATSALLLRLFTIGGVQKEVFSLAGPVVSMAGHGEQLFIVYHRGTGFDGDQCLGVQLLELGKKKKQILHGDPLPLTRKSYLAWIGFSAEGTPCYVDSEGIVRMLNRGLGNTWTPICNTREHCKGKSDHYWVVGIHENPQQLRCIPCKGSRFPPTLPRPAVAILSFKLPYCQIATEKGQMEEQFWRSVIFHNHLDYLAKNGYEYEESTKNQATKEQQELLMKMLALSCKLEREFRCVELADLMTQNAVNLAIKYASRSRKLILAQKLSELAVEKAAELTATQVEEEEEEEDFRKKLNAGYSNTATEWSQPRFRNQVEEDAEDSGEADDEEKPEIHKPGQNSFSKSTNSSDVSAKSGAVTFSSQGRVNPFKVSASSKEPAMSMNSARSTNILDNMGKSSKKSTALSRTTNNEKSPIIKPLIPKPKPKQASAASYFQKRNSQTNKTEEVKEENLKNVLSETPAICPPQNTENQRPKTGFQMWLEENRSNILSDNPDFSDEADIIKEGMIRFRVLSTEERKVWANKAKGETASEGTEAKKRKRVVDESDETENQEEKAKENLNLSKKQKPLDFSTNQKLSAFAFKQE
notes: AND-1, human; Only the trimer of SepB domains is ordered in the map; source: Hi5 insect cells (baculovirus), purified (Flag M2, MonoQ, Superdex 200)
- stoichiometry N [4]: 3
- binding result [5]: binds

B4: MCM6 (natural protein, human)
chain: MDLAAAAEPGAGSQHLEVRDEVAEKCQKLFLDFLEEFQSSDGEIKYLQLAEELIRPERNTLVVSFVDLEQFNQQLSTTIQEEFYRVYPYLCRALKTFVKDRKEIPLAKDFYVAFQDLPTRHKIRELTSSRIGLLTRISGQVVRTHPVHPELVSGTFLCLDCQTVIRDVEQQFKYTQPNICRNPVCANRRRFLLDTNKSRFVDFQKVRIQETQAELPRGSIPRSLEVILRAEAVESAQAGDKCDFTGTLIVVPDVSKLSTPGARAETNSRVSGVDGYETEGIRGLRALGVRDLSYRLVFLACCVAPTNPRFGGKELRDEEQTAESIKNQMTVKEWEKVFEMSQDKNLYHNLCTSLFPTIHGNDEVKRGVLLMLFGGVPKTTGEGTSLRGDINVCIVGDPSTAKSQFLKHVEEFSPRAVYTSGKASSAAGLTAAVVRDEESHEFVIEAGALMLADNGVCCIDEFDKMDVRDQVAIHEAMEQQTISITKAGVKATLNARTSILAAANPISGHYDRSKSLKQNINLSAPIMSRFDLFFILVDECNEVTDYAIARRIVDLHSRIEESIDRVYSLDDIRRYLLFARQFKPKISKESEDFIVEQYKHLRQRDGSGVTKSSWRITVRQLESMIRLSEAMARMHCCDEVQPKHVKEAFRLLNKSIIRVETPDVNLDQEEEIQMEVDEGAGGINGHADSPAPVNGINGYNEDINQESAPKASLRLGFSEYCRISNLIVLHLRKVEEEEDESALKRSELVNWYLKEIESEIDSEEELINKKRIIEKVIHRLTHYDHVLIELTQAGLKGSTEGSESYEEDPYLVVNPNYLLED
notes: MCM6, human; Stood in the structure as a subunit of m1; source: Hi5 insect cells, purified as a subunit of hsCMG
- binding result [6]: binds
- binding result [2]: binds
